Numbering of substitutions follows the chain as printed. Names and notes keep the numbering of the source.
B1: CD80 E35D/M47V/N48K/V68M/K89N IgV-Fc, delta linker (Fc fusion)
chain: VIHVTKEVKEVATLSCGHNVSVEELAQTRIYWQKDKKMVLTMMSGDVKIWPEYKNRTIFDITNNLSIMILALRPSDEGTYECVVLKYENDAFKREHLAEVTLSVKTHTCPPCPAPEAEGAPSVFLFPPKPKDTLMISRTPEVTCVVVDVSHEDPEVKFNWYVDGVEVHNAKTKPREEQYNSTYRVVSVLTVLHQDWLNGKEYKCKVSNKALPAPIEKTISKAKGQPREPQVYTLPPSREEMTKNQVSLTCLVKGFYPSDIAVEWESNGQPENNYKTTPPVLDSDGSFFLYSKLTVDKSRWQQGNVFSCSVMHEALHNHYTQKSLSLSPG
notes: Fused directly to the Fc with no additional linker; also called E35D/M47V/N48K/V68M/K89N delta
B2: CD80 E35D/D46V/M47L/V68M/L85Q/E88D IgV-Fc, delta linker (Fc fusion)
chain: B1 chain with D46V, V47L, K48N, L85Q, E88D, N89K
notes: Fused directly to the Fc with no additional linker; also called E35D/D46V/M47L/V68M/L85Q/E88D delta
B3: CD80 E35D/D46V/M47L/V68M/L85Q/E88D IgV-Fc, GS(G4S)5 linker (Fc fusion, not shown: a dimerising Fc or GST)
chain: VIHVTKEVKEVATLSCGHNVSVEELAQTRIYWQKDKKMVLTMMSGVLNIWPEYKNRTIFDITNNLSIMILALRPSDEGTYECVVQKYDKDAFKREHLAEVTLSVKADGSGGGGSGGGGSGGGGSGGGGSGGGGS
B4: CD80 E35D/D46V/M47L/V68M/L85Q/E88D IgV-Fc, (EAAAK)3 linker (Fc fusion, not shown: a dimerising Fc or GST)
chain: VIHVTKEVKEVATLSCGHNVSVEELAQTRIYWQKDKKMVLTMMSGVLNIWPEYKNRTIFDITNNLSIMILALRPSDEGTYECVVQKYDKDAFKREHLAEVTLSVKADEAAAKEAAAKEAAAK
B5: wild-type CD80 IgV-Fc (inert) with GSG4S linker, Example 16 (Fc fusion)
chain: VIHVTKEVKEVATLSCGHNVSVEELAQTRIYWQKEKKMVLTMMSGDMNIWPEYKNRTIFDITNNLSIVILALRPSDEGTYECVVLKYEKDAFKREHLAEVTLSVKADGSGGGGSEPKSSDKTHTCPPCPAPEAEGAPSVFLFPPKPKDTLMISRTPEVTCVVVDVSHEDPEVKFNWYVDGVEVHNAKTKPREEQYNSTYRVVSVLTVLHQDWLNGKEYKCKVSNKALPAPIEKTISKAKGQPREPQVYTLPPSREEMTKNQVSLTCLVKGFYPSDIAVEWESNGQPENNYKTTPPVLDSDGSFFLYSKLTVDKSRWQQGNVFSCSVMHEALHNHYTQKSLSLSPG
notes: also called CD80 WT IgV-Fc
B6: CD80 E35D/M47V/N48K/V68M/K89N IgV-Fc, EAAAK linker (Fc fusion, not shown: a dimerising Fc or GST)
chain: VIHVTKEVKEVATLSCGHNVSVEELAQTRIYWQKDKKMVLTMMSGDVKIWPEYKNRTIFDITNNLSIMILALRPSDEGTYECVVLKYENDAFKREHLAEVTLSVKADEAAAK
B7: CD80 E35D/D46V/M47L/V68M/L85Q/E88D IgV-Fc, EAAAK linker (Fc fusion, not shown: a dimerising Fc or GST)
chain: B6 chain with D46V, V47L, K48N, L85Q, E88D, N89K
B8: variant CD80 IgV-Fc H18Y/A26E/A71G/D90G (Fc fusion, not shown: small tags and cut ends; a dimerising Fc or GST)
chain: VIHVTKEVKEVATLSCGYNVSVEELEQTRIYWQKEKKMVLTMMSGDMNIWPEYKNRTIFDITNNLSIVILGLRPSDEGTYECVVLKYEKGAFKREHLAEVTLSVKAD
B9: variant CD80 IgV-Fc M47L/V68M/A71G/D90G (Fc fusion, not shown: small tags and cut ends; a dimerising Fc or GST)
chain: B8 chain with Y18H, E26A, M47L, V68M
B10: variant CD80 IgV-Fc H18Y/A26E/E35D/D90G (Fc fusion, not shown: small tags and cut ends; a dimerising Fc or GST)
chain: B8 chain with E35D, G71A
B11: H18Y/V22A/E35D/T41S/M47V/T62N/A71G/A91G CD80 IgV-Fc (Fc fusion, not shown: a dimerising Fc or GST)
chain: B8 chain with V22A, E26A, E35D, T41S, M47V, T62N, G90D, A91G
B12: S15T/H18Y/E35D/M47V/T62A/N64S/A71G/L85Q/D90N CD80 IgV-Fc (Fc fusion, not shown: a dimerising Fc or GST)
chain: B8 chain with S15T, E26A, E35D, M47V, T62A, N64S, L85Q, G90N

The binders below were run against T1, human PD-L1 (human, UniProt Q9NZQ7 19-290) (assay: cell-based or functional assay).
T1 sequence (Q9NZQ7 19-290): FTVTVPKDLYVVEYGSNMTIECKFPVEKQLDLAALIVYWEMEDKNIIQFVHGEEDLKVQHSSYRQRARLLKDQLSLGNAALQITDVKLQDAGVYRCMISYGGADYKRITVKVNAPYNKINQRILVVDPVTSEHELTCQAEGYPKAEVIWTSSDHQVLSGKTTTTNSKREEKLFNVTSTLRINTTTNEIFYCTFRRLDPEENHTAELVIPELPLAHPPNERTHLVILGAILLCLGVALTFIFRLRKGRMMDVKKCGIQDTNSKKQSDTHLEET

Binder | Fold Increase over WT CD80-IgV-Fc, Jurkat/IL2 + CHO/OKT3/PD-L1 Reporter Assay | RLU, Jurkat/IL2 + CHO/OKT3/PD-L1 Reporter Assay, CD80 Conc 5.0 nM
B1 | 2.63 fold | 1030 RLU
B2 | 2.77 fold | 1080 RLU
B3 | 5.26 fold | 2050 RLU
B4 | 5.25 fold | 2050 RLU
B5 | 1 fold | 390 RLU
B6 | 4.38 fold | 1710 RLU
B7 | 3.75 fold | 1460 RLU

These binders were tested against T2, human CD28 (human, UniProt P10747 19-220) (assay: flow cytometry on Jurkat cells (CD28)).
T2 construct: Endogenous CD28 on Jurkat/IL2 reporter cells

Binder | MFI at 33.3 nM
B1 | 4680 MFI
B2 | 4170 MFI
B3 | 143 MFI
B4 | 197 MFI
B5 | 56 MFI
B6 | 2630 MFI
B7 | 563 MFI

What follows are binders tested against T1, human PD-L1 (assay: flow cytometry; PD-L1 MFI over CD28 MFI).

Binder | Ratio of PDL1:CD28
B1 | 4 ratio
B2 | 5 ratio
B3 | 157 ratio
B4 | 129 ratio
B5 | 1 ratio
B6 | 9 ratio
B7 | 44 ratio

What follows are binders tested against T3, human CTLA4 (human, UniProt P16410 36-223) (assay: flow cytometry, CHO cells expressing huCTLA4).
T3 construct: also called huCTLA4
T3 sequence (P16410 36-223): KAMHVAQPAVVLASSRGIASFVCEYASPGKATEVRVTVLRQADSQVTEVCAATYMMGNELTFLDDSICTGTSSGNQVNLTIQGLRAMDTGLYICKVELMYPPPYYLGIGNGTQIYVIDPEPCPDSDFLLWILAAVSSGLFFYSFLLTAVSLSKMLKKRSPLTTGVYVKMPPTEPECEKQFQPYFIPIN

Binder | MFI at 33.3 nM
B8 | 19900 MFI
B9 | 17400 MFI

Each binder was assayed against T4, human PD-L1 (human, UniProt Q9NZQ7 19-290) (assay: flow cytometry, CHO cells expressing huPD-L1).
T4 construct: also called huPD-L1; CD274
T4 sequence (Q9NZQ7 19-290): as the sequence (Q9NZQ7 19-290) above

Binder | MFI at 33.3 nM
B10 | 10000 MFI
B9 | 31100 MFI

The binders below were run against T5, human CTLA-4 (human, UniProt P16410 36-223) (assay: flow cytometry on CHO cells stably expressing CTLA4).
T5 construct: also called huCTLA4
T5 sequence (P16410 36-223): as the sequence (P16410 36-223) above

Binder | MFI at 33.3 nM
B1 | 3090 MFI
B2 | 12200 MFI
B3 | 26600 MFI
B4 | 32000 MFI
B5 | 1200 MFI
B6 | 27500 MFI
B7 | 29000 MFI

Each binder was assayed against T1, human PD-L1 (assay: flow cytometry on CHO cells stably expressing PD-L1).

Binder | MFI at 33.3 nM
B1 | 20400 MFI
B2 | 22500 MFI
B3 | 22400 MFI
B4 | 25500 MFI
B5 | 47 MFI
B6 | 22900 MFI
B7 | 24800 MFI

What follows are binders tested against T2, human CD28 (assay: flow cytometry on Jurkat cells (CD28); vs CD80 WT IgV-Fc).

Binder | Fold change to WT CD80
B1 | 83.7 fold
B2 | 74.7 fold
B3 | 2.6 fold
B4 | 3.5 fold
B5 | 1 fold
B6 | 47.1 fold
B7 | 10.1 fold

What follows are binders tested against human CD28 (human, UniProt P10747 19-220) (assay: flow cytometry, Jurkat/IL2 reporter cells (endogenous CD28)).

Binder | MFI at 33.3 nM
B8 | 2000 MFI
B9 | 3610 MFI

Each binder was assayed against T6, human PD-L1 (human, UniProt Q9NZQ7 19-290) (assay: flow cytometry; MFI on CHO/PD-L1 over MFI on Jurkat (CD28), 33.3 nM).
T6 construct: whole, on cells; also called huPD-L1
T6 sequence (Q9NZQ7 19-290): as the sequence (Q9NZQ7 19-290) above

Binder | Ratio of PDL1:CD28
B11 | 5 ratio
B12 | 13 ratio

The binders below were run against T5, human CTLA-4 (assay: flow cytometry on CHO cells stably expressing CTLA4; vs CD80 WT IgV-Fc).

Binder | Fold change to WT CD80
B1 | 2.6 fold
B2 | 10.2 fold
B3 | 22.2 fold
B4 | 26.8 fold
B5 | 1 fold
B6 | 23 fold
B7 | 24.2 fold

What follows are binders tested against T1, human PD-L1 (assay: flow cytometry on CHO cells stably expressing PD-L1; vs CD80 WT IgV-Fc).

Binder | Fold change to WT CD80
B1 | 439 fold
B2 | 484 fold
B3 | 481 fold
B4 | 546 fold
B5 | 1 fold
B6 | 491 fold
B7 | 533 fold

Each binder was assayed against T7, human CTLA-4 (human, UniProt P16410 36-223) (assay: flow cytometry, CHO cells stably expressing huCTLA4, 33.3 nM, PE anti-human Fc).
T7 construct: whole, on cells; also called huCTLA4
T7 sequence (P16410 36-223): as the sequence (P16410 36-223) above

Binder | Fold change to WT CD80 | MFI at 33.3 nM
B11 | 10 fold | 10300 MFI
B12 | 10.7 fold | 11000 MFI

Each binder was assayed against T6, human PD-L1 (assay: flow cytometry, CHO cells stably expressing huPD-L1, 33.3 nM, PE anti-human Fc).

Binder | Fold change to WT | MFI at 33.3 nM
B11 | 101 fold | 8460 MFI
B12 | 166 fold | 13900 MFI

The binders below were run against T8, human CD28 (human, UniProt P10747 19-220) (assay: flow cytometry, Jurkat/IL2 reporter cells (endogenous CD28), 33.3 nM, PE anti-human Fc).
T8 construct: whole, on cells; Endogenous CD28 of Jurkat/IL2 reporter cells

Binder | Fold change to WT | MFI at 33.3 nM
B11 | 38.5 fold | 1590 MFI
B12 | 25.9 fold | 1070 MFI
